Laboratory results published in patent CN114181311A (dated 2022).

What was measured:
[1] = biological target: T1, His-DLL3胞外区蛋白 (Human DLL3 Protein, His Tag, ACRO DL3-H52H4) (human, UniProt Q9NYJ7 27-492); test: phage ELISA, scFv shown on M13 phage, coated DLL3-His 1 ug/ml, anti-M13-HRP
T1 construct: extracellular domain; Bought protein; also called DLL3-His; DLL3抗原; not shown: His tag
T1 sequence (looked up): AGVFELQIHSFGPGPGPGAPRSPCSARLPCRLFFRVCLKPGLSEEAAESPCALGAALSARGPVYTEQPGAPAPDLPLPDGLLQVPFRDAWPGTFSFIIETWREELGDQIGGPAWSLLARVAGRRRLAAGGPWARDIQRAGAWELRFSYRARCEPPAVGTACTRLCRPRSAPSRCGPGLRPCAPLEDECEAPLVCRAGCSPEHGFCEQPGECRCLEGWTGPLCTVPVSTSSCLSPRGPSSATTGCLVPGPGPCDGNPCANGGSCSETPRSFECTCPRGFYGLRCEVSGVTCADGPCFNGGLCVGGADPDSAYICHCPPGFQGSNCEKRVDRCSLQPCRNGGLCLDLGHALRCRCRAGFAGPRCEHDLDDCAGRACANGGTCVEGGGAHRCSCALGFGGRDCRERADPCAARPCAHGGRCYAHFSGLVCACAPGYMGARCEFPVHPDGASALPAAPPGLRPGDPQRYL

BSA(牛血清白蛋白) [2] = biological target: T2, BSA(牛血清白蛋白) (bovine, UniProt P02769 25-607); test: ELISA, periplasmic extract with soluble scFv on coated BSA, anti-c-myc-HRP detection
T2 sequence (P02769 25-607 limits assumed): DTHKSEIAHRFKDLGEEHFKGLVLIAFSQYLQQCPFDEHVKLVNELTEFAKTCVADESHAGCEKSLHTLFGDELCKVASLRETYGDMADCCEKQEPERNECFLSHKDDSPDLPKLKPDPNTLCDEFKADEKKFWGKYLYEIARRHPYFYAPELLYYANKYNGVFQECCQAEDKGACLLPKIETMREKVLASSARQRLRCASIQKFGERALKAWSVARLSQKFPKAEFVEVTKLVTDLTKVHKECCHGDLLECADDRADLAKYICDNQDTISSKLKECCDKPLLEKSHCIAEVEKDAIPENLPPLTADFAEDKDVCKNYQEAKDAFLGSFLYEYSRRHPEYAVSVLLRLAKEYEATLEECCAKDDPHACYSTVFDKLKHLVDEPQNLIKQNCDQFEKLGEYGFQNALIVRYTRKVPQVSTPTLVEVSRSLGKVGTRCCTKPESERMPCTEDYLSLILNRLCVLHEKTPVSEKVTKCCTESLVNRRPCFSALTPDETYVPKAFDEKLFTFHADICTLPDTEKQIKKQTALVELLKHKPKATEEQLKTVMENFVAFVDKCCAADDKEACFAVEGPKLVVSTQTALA

小细胞肺癌细胞系SHP-77上表达的DLL3抗原 = biological target: T3, 小细胞肺癌细胞系SHP-77上表达的DLL3抗原 (UniProt Q9NYJ7 27-618); test: flow cytometry on SHP-77 cells, PE anti-human Fc detection
T3 construct: whole, on cells; Endogenous DLL3 on SHP-77 cells; also called DLL3 on SHP-77 cells
T3 sequence (looked up): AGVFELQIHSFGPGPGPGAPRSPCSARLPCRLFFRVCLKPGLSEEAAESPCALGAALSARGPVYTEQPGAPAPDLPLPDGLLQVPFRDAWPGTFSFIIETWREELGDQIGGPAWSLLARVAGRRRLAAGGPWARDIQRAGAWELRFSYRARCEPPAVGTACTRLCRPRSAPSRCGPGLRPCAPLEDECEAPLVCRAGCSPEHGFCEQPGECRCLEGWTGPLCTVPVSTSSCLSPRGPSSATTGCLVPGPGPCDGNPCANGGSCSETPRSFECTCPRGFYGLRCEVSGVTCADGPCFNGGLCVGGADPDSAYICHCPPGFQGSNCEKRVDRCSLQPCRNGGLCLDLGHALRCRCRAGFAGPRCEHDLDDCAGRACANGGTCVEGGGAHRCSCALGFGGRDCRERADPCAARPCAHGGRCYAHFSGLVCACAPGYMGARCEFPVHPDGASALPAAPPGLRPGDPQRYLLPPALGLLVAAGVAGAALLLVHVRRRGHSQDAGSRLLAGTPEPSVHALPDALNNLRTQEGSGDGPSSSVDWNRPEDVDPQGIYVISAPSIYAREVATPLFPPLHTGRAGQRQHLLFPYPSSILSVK

BSA(牛血清白蛋白) [3] = biological target: T2, BSA(牛血清白蛋白); test: ELISA, 293T culture supernatant on coated BSA, anti-human IgG-Fc-HRP detection
[4] = biological target: T1, His-DLL3胞外区蛋白 (Human DLL3 Protein, His …); test: ELISA, 293T culture supernatant, coated DLL3-His 1 ug/ml, anti-human IgG-Fc-HRP

B1: 抗DLL3 scFv A7 (A7-scFv) (scFv)
scFv: QVQLVQSGAEVKKPGASVKVSCKASGYTFTSYYMHWVRQAPGQGLEWMGIINPSGGSTSYAKKFQGRVTMTRDTSTSTVYMELNRVTSDDTAVYYCARGGGVTGFDYWGQGTLVTVSSGSASAPTLGGGGSGGGGSGGGGSDIQMTQSPSSLSASLGDRVTITCRASQTVRTYLNWYQQKPGKAPNLLIYGASSLQSGVPSRFSGSGSGTDFTLTINSLQPEDFGTYYCQQSDTPPLTFGGGTKVEIK
notes: Fully human scFv from a phage library; also called 抗DLL3阳性克隆A7; 抗DLL3可溶性抗体A7
- binding result [1]: binds
- binding result (BSA(牛血清白蛋白) [2]): no binding

B2: A7 scFv-hFc (Fc fusion)
chain: QVQLVQSGAEVKKPGASVKVSCKASGYTFTSYYMHWVRQAPGQGLEWMGIINPSGGSTSYAKKFQGRVTMTRDTSTSTVYMELNRVTSDDTAVYYCARGGGVTGFDYWGQGTLVTVSSGSASAPTLGGGGSGGGGSGGGGSDIQMTQSPSSLSASLGDRVTITCRASQTVRTYLNWYQQKPGKAPNLLIYGASSLQSGVPSRFSGSGSGTDFTLTINSLQPEDFGTYYCQQSDTPPLTFGGGTKVEIK
notes: Expressed in 293T cells and tested as culture supernatant; also called A7 scFv-hFc重组蛋白; 抗DLL3单链抗体(scFv-hFc); not shown: human IgG1 Fc segment from the mammalian expression vector PUTAM003
- binding result (小细胞肺癌细胞系SHP-77上表达的DLL3抗原): binds
- binding result (BSA(牛血清白蛋白) [3]): no binding
- binding result [4]: binds

B3: 抗DLL3 scFv G8 (G8-scFv) (scFv)
scFv: QVQLQQSGPGLVKPSQTLSLTCAISGDSVSSDSVAWSWIRQSPSRGLEWLGRTYYRSKWYYDYAASVKSRISINPDTSKNQFSLQLNSVTPEDTAVYYCAREPLRYGSSWWDAFDIWGQGTMITVSSGSASAPTLGGGGSGGGGSGGGGSQSALTQPPSVSGSPGQAVTISCTGTSSDVGRYNYVSWYQQHPGKVPKLILFDVSSRPSGVSHRFSGSKSGNTASLTISGLQAEDEADYYCTSYRSGSEVFGGGTKLTVL
notes: Fully human scFv from a phage library; also called 抗DLL3阳性克隆G8; 抗DLL3可溶性抗体G8
- binding result [1]: binds
- binding result (BSA(牛血清白蛋白) [2]): no binding

B4: G8 scFv-hFc (Fc fusion)
chain: QVQLQQSGPGLVKPSQTLSLTCAISGDSVSSDSVAWSWIRQSPSRGLEWLGRTYYRSKWYYDYAASVKSRISINPDTSKNQFSLQLNSVTPEDTAVYYCAREPLRYGSSWWDAFDIWGQGTMITVSSGSASAPTLGGGGSGGGGSGGGGSQSALTQPPSVSGSPGQAVTISCTGTSSDVGRYNYVSWYQQHPGKVPKLILFDVSSRPSGVSHRFSGSKSGNTASLTISGLQAEDEADYYCTSYRSGSEVFGGGTKLTVL
notes: Expressed in 293T cells and tested as culture supernatant; also called G8 scFv-hFc重组蛋白; not shown: human IgG1 Fc segment from the mammalian expression vector PUTAM003
- binding result (小细胞肺癌细胞系SHP-77上表达的DLL3抗原): binds
- binding result (BSA(牛血清白蛋白) [3]): no binding
- binding result [4]: binds
